Source: US20070178464A1

Target: Probe II: N-terminal domains of Rluc and DnaE with nuclear localization signal (expressed from pcRDn-NLS) (Renilla; blue-green algae, PCC6803 strain) (UniProt P27652)
Test: cell-based or functional assay

Chain of Probe II: N-terminal domains of Rluc and DnaE with nuclear localization signal (expressed from pcRDn-NLS) (Renilla; blue-green algae, PCC6803 strain) (P27652 whole entry, the tested form may be a part): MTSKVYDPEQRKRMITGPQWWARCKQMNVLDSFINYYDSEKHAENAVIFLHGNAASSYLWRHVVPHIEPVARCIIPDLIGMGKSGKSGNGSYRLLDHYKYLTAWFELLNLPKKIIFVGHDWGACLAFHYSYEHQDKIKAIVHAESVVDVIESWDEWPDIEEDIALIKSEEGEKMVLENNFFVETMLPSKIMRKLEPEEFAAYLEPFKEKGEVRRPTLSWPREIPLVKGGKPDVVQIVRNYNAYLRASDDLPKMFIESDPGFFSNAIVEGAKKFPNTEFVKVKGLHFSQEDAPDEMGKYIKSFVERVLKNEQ

Substance “Probe I: AR connected to the C-terminal domains of RLuc and DnaE (expressed from pcDRc-AR) (from UniProt P27652 230-311; P10275 1-918)” has a luminescence intensity (cooled CCD image of mice implanted with transfected COS-7 cells) of 20 times.
